In patent publication US20110124841A1 (published 2011):
MPEG 20 kDa = 20 kDa MPEG from MPEG iodoacetamide

B1: PEGylated SB C-protein (residues 388 to 453 of SEQ ID NO:1) (other)
chain: GTLEHHHHHHGSPEIEKLSQSDIYWDPIVSITETGVEEVFDLTVPGPRNFVANDIIVHNSGGGC(MPEG 20 kDa)GP
B2: PEGylated SG C-protein (residues 388 to 449 of SEQ ID NO:3) (other)
chain: GTLEHHHHHHGSEAVLNYNHRIVNIEAVSETIDVYDIEVPHTHNFALASGVFVHNSAGGC(MPEG 20 kDa)GP

What was measured:
[1] = target: SB N-protein (SEQ ID NO:2); assay: cell-based or functional assay
[2] = target: SG N-protein (SEQ ID NO:4); assay: cell-based or functional assay

Binder	efficiency of the trans-splicing reaction, from SDS-PAGE protein band intensity; molar ratio approximately 1 [1]	efficiency of the trans-splicing, from SDS-PAGE protein band intensity; room temperature, molar ratio of C-protein to N-protein approximately 1 (Lane 9) [2]	efficiency of the trans-splicing, from SDS-PAGE protein band intensity; room temperature, molar ratio of C-protein to N-protein approximately 5 (Lane 13) [2]
B1	~30%		
B2		~50%	~90%
